Source: publication PMC2956967, “Cytochrome P450 102A2 Catalyzes Efficient Oxidation of Sodium Dodecyl Sulphate: A Molecular Tool for Remediation” (Enzyme Research, 2010)

T1: CYP102A2 (Bacillus subtilis, UniProt O08394)
T1 construct: gene cypD; full-length heme-diflavin reductase fusion, about 119 kDa per active site; PCR from genomic DNA, pCR T7/CT-TOPO, E. coli BL21(DE3); untagged enzyme and C-terminal 6His version both made, said kinetically alike
T1 sequence (O08394 1-1061): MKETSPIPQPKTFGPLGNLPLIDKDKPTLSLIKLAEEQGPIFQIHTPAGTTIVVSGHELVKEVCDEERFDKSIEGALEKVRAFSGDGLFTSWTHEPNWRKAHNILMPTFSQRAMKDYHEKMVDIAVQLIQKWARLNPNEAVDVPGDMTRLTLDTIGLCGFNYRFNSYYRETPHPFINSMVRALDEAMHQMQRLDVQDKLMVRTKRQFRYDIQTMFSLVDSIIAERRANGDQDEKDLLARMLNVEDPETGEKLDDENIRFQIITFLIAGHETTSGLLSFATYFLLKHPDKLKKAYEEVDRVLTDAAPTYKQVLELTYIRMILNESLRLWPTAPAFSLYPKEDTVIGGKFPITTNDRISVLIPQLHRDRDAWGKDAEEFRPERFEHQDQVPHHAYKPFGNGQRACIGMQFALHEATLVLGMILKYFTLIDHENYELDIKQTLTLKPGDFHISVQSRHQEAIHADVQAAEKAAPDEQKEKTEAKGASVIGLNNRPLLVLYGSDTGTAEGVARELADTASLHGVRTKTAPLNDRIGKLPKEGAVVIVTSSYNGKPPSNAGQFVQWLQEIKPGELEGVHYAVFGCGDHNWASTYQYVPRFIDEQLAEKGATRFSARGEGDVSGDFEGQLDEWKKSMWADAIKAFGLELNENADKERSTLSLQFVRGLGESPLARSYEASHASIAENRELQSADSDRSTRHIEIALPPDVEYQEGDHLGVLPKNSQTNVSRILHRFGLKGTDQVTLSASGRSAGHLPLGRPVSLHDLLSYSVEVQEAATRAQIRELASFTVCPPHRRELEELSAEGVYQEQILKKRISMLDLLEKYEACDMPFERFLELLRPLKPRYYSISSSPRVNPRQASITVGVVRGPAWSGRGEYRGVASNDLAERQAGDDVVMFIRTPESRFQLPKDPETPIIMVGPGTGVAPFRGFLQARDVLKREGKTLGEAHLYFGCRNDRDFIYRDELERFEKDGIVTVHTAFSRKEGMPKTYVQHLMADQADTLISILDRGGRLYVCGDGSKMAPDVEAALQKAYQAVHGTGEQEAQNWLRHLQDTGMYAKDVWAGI


Tests used:
CYP102A2 = target: T1, CYP102A2; assay: product inhibition, NADPH oxidation at […] nm; format: biochemical
purified protein [1] = substrate: CCCCCCCCCCCC(=O)O; assay: purified protein; format: biochemical, Bacillus subtilis; details: NADPH co-substrate, 0.1 M potassium phosphate pH 7.2, 37 °C, sigmoidal, nH 8.7
purified protein [2] = substrate: CCCCCCCCCCCCOS(=O)(=O)O; assay: purified protein; format: biochemical, Bacillus subtilis; details: 0.1 mM NADPH, 0.1 M potassium phosphate pH 7.2, 37 °C, SDS 0.34-1.73 mM, sigmoidal, nH 5.7
purified protein [3] = substrate: NC(=O)C1=CN([C@@H]2O[C@H](COP(=O)(O)OP(=O)(O)OC[C@H]3O[C@@H](n4cnc5c(N)ncnc54)[C@H](OP(=O)(O)O)[C@@H]3O)[C@@H](O)[C@H]2O)C=CC1; assay: purified protein; format: biochemical, Bacillus subtilis; details: 1.735 mM SDS co-substrate, 0.1 M potassium phosphate pH 7.2, 37 °C, NADPH 6.6-100 μM

Molecule	Ki (CYP102A2)	K0.5 (purified protein [1])	Vmax (purified protein [1])	K0.5 (purified protein [2])	Vmax (purified protein [2])	Km (purified protein [3])	kcat (purified protein [3])	kcat/Km (purified protein [3])
NC(=O)c1ccc[n+]([C@@H]2O[C@H](COP(=O)(O)OP(=O)(O)OC[C@H]3O[C@@H](n4cnc5c(N)ncnc54)[C@H](OP(=O)(O)O)[C@@H]3O)[C@@H](O)[C@H]2O)c1 [NADP^+]	100 µM							
CYP102A2 (Bacillus subtilis subsp. subtilis str. 168) (protein, full-length heme-diflavin reductase fusion, about 119 kDa per active site; PCR from genomic DNA, pCR T7/CT-TOPO, E. coli BL21(DE3); untagged enzyme and C-terminal 6His version both made, said kinetically alike) MKETSPIPQPKTFGPLGNLPLIDKDKPTLSLIKLAEEQGPIFQIHTPAGTTIVVSGHELVKEVCDEERFDKSIEGALEKVRAFSGDGLFTSWTHEPNWRKAHNILMPTFSQRAMKDYHEKMVDIAVQLIQKWARLNPNEAVDVPGDMTRLTLDTIGLCGFNYRFNSYYRETPHPFINSMVRALDEAMHQMQRLDVQDKLMVRTKRQFRYDIQTMFSLVDSIIAERRANGDQDEKDLLARMLNVEDPETGEKLDDENIRFQIITFLIAGHETTSGLLSFATYFLLKHPDKLKKAYEEVDRVLTDAAPTYKQVLELTYIRMILNESLRLWPTAPAFSLYPKEDTVIGGKFPITTNDRISVLIPQLHRDRDAWGKDAEEFRPERFEHQDQVPHHAYKPFGNGQRACIGMQFALHEATLVLGMILKYFTLIDHENYELDIKQTLTLKPGDFHISVQSRHQEAIHADVQAAEKAAPDEQKEKTEAKGASVIGLNNRPLLVLYGSDTGTAEGVARELADTASLHGVRTKTAPLNDRIGKLPKEGAVVIVTSSYNGKPPSNAGQFVQWLQEIKPGELEGVHYAVFGCGDHNWASTYQYVPRFIDEQLAEKGATRFSARGEGDVSGDFEGQLDEWKKSMWADAIKAFGLELNENADKERSTLSLQFVRGLGESPLARSYEASHASIAENRELQSADSDRSTRHIEIALPPDVEYQEGDHLGVLPKNSQTNVSRILHRFGLKGTDQVTLSASGRSAGHLPLGRPVSLHDLLSYSVEVQEAATRAQIRELASFTVCPPHRRELEELSAEGVYQEQILKKRISMLDLLEKYEACDMPFERFLELLRPLKPRYYSISSSPRVNPRQASITVGVVRGPAWSGRGEYRGVASNDLAERQAGDDVVMFIRTPESRFQLPKDPETPIIMVGPGTGVAPFRGFLQARDVLKREGKTLGEAHLYFGCRNDRDFIYRDELERFEKDGIVTVHTAFSRKEGMPKTYVQHLMADQADTLISILDRGGRLYVCGDGSKMAPDVEAALQKAYQAVHGTGEQEAQNWLRHLQDTGMYAKDVWAGI		0.47 ± 0.005 mM	0.088 µmol/min	1.22 ± 0.04 mM	0.18 µmol/min	8.30 ± 0.62 µM	2.05 ± 0.05 s⁻¹	250000 M⁻¹ s⁻¹
